First the molecules themselves.
B1: MYT0606 (antibody, V domains shown)
VH: QVQLVQSGAEVVKPGASVKISCKASGYTFTGHFMNWVKQSPGQSLEWIGRIHPYDGDTFYNQKFQGKATLTVDKSSNTAHMELLSLTSEDFAVYYCTRYDGSRAMDYWGQGTTVTVSS
VL: DIVLTQSPLSLAVSLGQPAIISCKASQSVSFAGTSLMHWYHQKPGQQPRLLIYRASNLEAGVPDRFSGSGSKTDFTLTISPVEAEDAATYYCQQSREYPYTFGGGTKLEIK
notes: IgG
B2: MYT0617 (antibody, V domains shown)
VH: QVQLVQSGAEVVKPGASVKISCKASGYTFTGYFMNWVKQSPGQSLEWIGRIHPYDGHTFYNQKFQGKATLTVDKSSNTAHMELLSLTSEDFAVYYCTRYDGSRAMDYWGQGTTVTVSS
VL: DIVLTQSPLSLAVSLGQPAIISCKASQSVSFAGTSLMHWYHQKPGQQPRLLIYRASNLEAGVPDRFSGSGSKTDFTLTISPVEAEDAATYYCQQSREYPYTFGGGTKLEIK
notes: IgG
B3: MYT0618 (antibody, V domains shown)
VH: QVQLVQSGAEVVKPGASVKISCKASGYTFTGYFMNWVKQSPGQSLEWIGRIHPYDGDHFYNQKFQGKATLTVDKSSNTAHMELLSLTSEDFAVYYCTRYDGSRAMDYWGQGTTVTVSS
VL: DIVLTQSPLSLAVSLGQPAIISCKASQSVSFAGTSLMHWYHQKPGQQPRLLIYRASNLEAGVPDRFSGSGSKTDFTLTISPVEAEDAATYYCQQSREYPYTFGGGTKLEIK
notes: IgG
B4: MYT0624 (antibody, V domains shown)
VH: QVQLVQSGAEVVKPGASVKISCKASGYTFTGYFMNWVKQSPGQSLEWIGRIHPYDGDTFYNQKHQGKATLTVDKSSNTAHMELLSLTSEDFAVYYCTRYDGSRAMDYWGQGTTVTVSS
VL: DIVLTQSPLSLAVSLGQPAIISCKASQSVSFAGTSLMHWYHQKPGQQPRLLIYRASNLEAGVPDRFSGSGSKTDFTLTISPVEAEDAATYYCQQSREYPYTFGGGTKLEIK
notes: IgG
B5: MYT0623 (antibody, V domains shown)
VH: QVQLVQSGAEVVKPGASVKISCKASGYTFTGYFMNWVKQSPGQSLEWIGRIHPYDGDTFYNQHFQGKATLTVDKSSNTAHMELLSLTSEDFAVYYCTRYDGSRAMDYWGQGTTVTVSS
VL: DIVLTQSPLSLAVSLGQPAIISCKASQSVSFAGTSLMHWYHQKPGQQPRLLIYRASNLEAGVPDRFSGSGSKTDFTLTISPVEAEDAATYYCQQSREYPYTFGGGTKLEIK
notes: IgG
B6: MYT0626 (antibody, V domains shown)
VH: QVQLVQSGAEVVKPGASVKISCKASGYTFTGYFMNWVKQSPGQSLEWIGRIHPYDGDTFYNQKFQHKATLTVDKSSNTAHMELLSLTSEDFAVYYCTRYDGSRAMDYWGQGTTVTVSS
VL: DIVLTQSPLSLAVSLGQPAIISCKASQSVSFAGTSLMHWYHQKPGQQPRLLIYRASNLEAGVPDRFSGSGSKTDFTLTISPVEAEDAATYYCQQSREYPYTFGGGTKLEIK
notes: IgG
B7: MYT0607 (antibody, V domains shown)
VH: QVQLVQSGAEVVKPGASVKISCKASGYTFTGYHMNWVKQSPGQSLEWIGRIHPYDGDTFYNQKFQGKATLTVDKSSNTAHMELLSLTSEDFAVYYCTRYDGSRAMDYWGQGTTVTVSS
VL: DIVLTQSPLSLAVSLGQPAIISCKASQSVSFAGTSLMHWYHQKPGQQPRLLIYRASNLEAGVPDRFSGSGSKTDFTLTISPVEAEDAATYYCQQSREYPYTFGGGTKLEIK
notes: IgG
B8: MYT0608 (antibody, V domains shown)
VH: QVQLVQSGAEVVKPGASVKISCKASGYTFTGYFHNWVKQSPGQSLEWIGRIHPYDGDTFYNQKFQGKATLTVDKSSNTAHMELLSLTSEDFAVYYCTRYDGSRAMDYWGQGTTVTVSS
VL: DIVLTQSPLSLAVSLGQPAIISCKASQSVSFAGTSLMHWYHQKPGQQPRLLIYRASNLEAGVPDRFSGSGSKTDFTLTISPVEAEDAATYYCQQSREYPYTFGGGTKLEIK
notes: IgG
B9: MYT0611 (antibody, V domains shown)
VH: QVQLVQSGAEVVKPGASVKISCKASGYTFTGYFMNWVKQSPGQSLEWIGRHHPYDGDTFYNQKFQGKATLTVDKSSNTAHMELLSLTSEDFAVYYCTRYDGSRAMDYWGQGTTVTVSS
VL: DIVLTQSPLSLAVSLGQPAIISCKASQSVSFAGTSLMHWYHQKPGQQPRLLIYRASNLEAGVPDRFSGSGSKTDFTLTISPVEAEDAATYYCQQSREYPYTFGGGTKLEIK
notes: IgG
B10: MYT0627 (antibody, V domains shown)
VH: QVQLVQSGAEVVKPGASVKISCKASGYTFTGYFMNWVKQSPGQSLEWIGRIHPYDGDTFYNQKFQGKATLTVDKSSNTAHMELLSLTSEDFAVYYCHRYDGSRAMDYWGQGTTVTVSS
VL: DIVLTQSPLSLAVSLGQPAIISCKASQSVSFAGTSLMHWYHQKPGQQPRLLIYRASNLEAGVPDRFSGSGSKTDFTLTISPVEAEDAATYYCQQSREYPYTFGGGTKLEIK
notes: IgG
B11: MYT0616 (antibody, V domains shown)
VH: QVQLVQSGAEVVKPGASVKISCKASGYTFTGYFMNWVKQSPGQSLEWIGRIHPYDHDTFYNQKFQGKATLTVDKSSNTAHMELLSLTSEDFAVYYCTRYDGSRAMDYWGQGTTVTVSS
VL: DIVLTQSPLSLAVSLGQPAIISCKASQSVSFAGTSLMHWYHQKPGQQPRLLIYRASNLEAGVPDRFSGSGSKTDFTLTISPVEAEDAATYYCQQSREYPYTFGGGTKLEIK
notes: IgG
B12: MYT0614 (antibody, V domains shown)
VH: QVQLVQSGAEVVKPGASVKISCKASGYTFTGYFMNWVKQSPGQSLEWIGRIHPHDGDTFYNQKFQGKATLTVDKSSNTAHMELLSLTSEDFAVYYCTRYDGSRAMDYWGQGTTVTVSS
VL: DIVLTQSPLSLAVSLGQPAIISCKASQSVSFAGTSLMHWYHQKPGQQPRLLIYRASNLEAGVPDRFSGSGSKTDFTLTISPVEAEDAATYYCQQSREYPYTFGGGTKLEIK
notes: IgG
B13: MYT0622 (antibody, V domains shown)
VH: QVQLVQSGAEVVKPGASVKISCKASGYTFTGYFMNWVKQSPGQSLEWIGRIHPYDGDTFYNHKFQGKATLTVDKSSNTAHMELLSLTSEDFAVYYCTRYDGSRAMDYWGQGTTVTVSS
VL: DIVLTQSPLSLAVSLGQPAIISCKASQSVSFAGTSLMHWYHQKPGQQPRLLIYRASNLEAGVPDRFSGSGSKTDFTLTISPVEAEDAATYYCQQSREYPYTFGGGTKLEIK
notes: IgG
B14: MYT0610 (antibody, V domains shown)
VH: QVQLVQSGAEVVKPGASVKISCKASGYTFTGYFMNWVKQSPGQSLEWIGHIHPYDGDTFYNQKFQGKATLTVDKSSNTAHMELLSLTSEDFAVYYCTRYDGSRAMDYWGQGTTVTVSS
VL: DIVLTQSPLSLAVSLGQPAIISCKASQSVSFAGTSLMHWYHQKPGQQPRLLIYRASNLEAGVPDRFSGSGSKTDFTLTISPVEAEDAATYYCQQSREYPYTFGGGTKLEIK
notes: IgG
B15: MYT0620 (antibody, V domains shown)
VH: QVQLVQSGAEVVKPGASVKISCKASGYTFTGYFMNWVKQSPGQSLEWIGRIHPYDGDTFHNQKFQGKATLTVDKSSNTAHMELLSLTSEDFAVYYCTRYDGSRAMDYWGQGTTVTVSS
VL: DIVLTQSPLSLAVSLGQPAIISCKASQSVSFAGTSLMHWYHQKPGQQPRLLIYRASNLEAGVPDRFSGSGSKTDFTLTISPVEAEDAATYYCQQSREYPYTFGGGTKLEIK
notes: IgG
B16: MYT0615 (antibody, V domains shown)
VH: QVQLVQSGAEVVKPGASVKISCKASGYTFTGYFMNWVKQSPGQSLEWIGRIHPYHGDTFYNQKFQGKATLTVDKSSNTAHMELLSLTSEDFAVYYCTRYDGSRAMDYWGQGTTVTVSS
VL: DIVLTQSPLSLAVSLGQPAIISCKASQSVSFAGTSLMHWYHQKPGQQPRLLIYRASNLEAGVPDRFSGSGSKTDFTLTISPVEAEDAATYYCQQSREYPYTFGGGTKLEIK
notes: IgG
B17: MYT0621 (antibody, V domains shown)
VH: QVQLVQSGAEVVKPGASVKISCKASGYTFTGYFMNWVKQSPGQSLEWIGRIHPYDGDTFYHQKFQGKATLTVDKSSNTAHMELLSLTSEDFAVYYCTRYDGSRAMDYWGQGTTVTVSS
VL: DIVLTQSPLSLAVSLGQPAIISCKASQSVSFAGTSLMHWYHQKPGQQPRLLIYRASNLEAGVPDRFSGSGSKTDFTLTISPVEAEDAATYYCQQSREYPYTFGGGTKLEIK
notes: IgG
B18: MYT0619 (antibody, V domains shown)
VH: QVQLVQSGAEVVKPGASVKISCKASGYTFTGYFMNWVKQSPGQSLEWIGRIHPYDGDTHYNQKFQGKATLTVDKSSNTAHMELLSLTSEDFAVYYCTRYDGSRAMDYWGQGTTVTVSS
VL: DIVLTQSPLSLAVSLGQPAIISCKASQSVSFAGTSLMHWYHQKPGQQPRLLIYRASNLEAGVPDRFSGSGSKTDFTLTISPVEAEDAATYYCQQSREYPYTFGGGTKLEIK
notes: IgG
B19: MYT0625 (antibody, V domains shown)
VH: QVQLVQSGAEVVKPGASVKISCKASGYTFTGYFMNWVKQSPGQSLEWIGRIHPYDGDTFYNQKFHGKATLTVDKSSNTAHMELLSLTSEDFAVYYCTRYDGSRAMDYWGQGTTVTVSS
VL: DIVLTQSPLSLAVSLGQPAIISCKASQSVSFAGTSLMHWYHQKPGQQPRLLIYRASNLEAGVPDRFSGSGSKTDFTLTISPVEAEDAATYYCQQSREYPYTFGGGTKLEIK
notes: IgG
B20: MYT0612 (antibody, V domains shown)
VH: QVQLVQSGAEVVKPGASVKISCKASGYTFTGYFMNWVKQSPGQSLEWIGRIAPYDGDTFYNQKFQGKATLTVDKSSNTAHMELLSLTSEDFAVYYCTRYDGSRAMDYWGQGTTVTVSS
VL: DIVLTQSPLSLAVSLGQPAIISCKASQSVSFAGTSLMHWYHQKPGQQPRLLIYRASNLEAGVPDRFSGSGSKTDFTLTISPVEAEDAATYYCQQSREYPYTFGGGTKLEIK
notes: IgG
B21: MYT0628 (antibody, V domains shown)
VH: QVQLVQSGAEVVKPGASVKISCKASGYTFTGYFMNWVKQSPGQSLEWIGRIHPYDGDTFYNQKFQGKATLTVDKSSNTAHMELLSLTSEDFAVYYCTHYDGSRAMDYWGQGTTVTVSS
VL: DIVLTQSPLSLAVSLGQPAIISCKASQSVSFAGTSLMHWYHQKPGQQPRLLIYRASNLEAGVPDRFSGSGSKTDFTLTISPVEAEDAATYYCQQSREYPYTFGGGTKLEIK
notes: IgG

T1 sequence (P15328 25-233 limits assumed): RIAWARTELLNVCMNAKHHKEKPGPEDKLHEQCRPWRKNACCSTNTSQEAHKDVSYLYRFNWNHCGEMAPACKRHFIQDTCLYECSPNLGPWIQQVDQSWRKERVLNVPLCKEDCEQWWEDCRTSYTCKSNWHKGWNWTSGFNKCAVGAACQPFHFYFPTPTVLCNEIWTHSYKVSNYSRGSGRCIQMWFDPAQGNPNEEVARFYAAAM

This test concerns the target T1, FOLR1 (R&D Systems, Cat #5646-FR) (human, UniProt P15328 25-233).
T1 construct: Bought soluble protein; also called Folate Receptor 1
Briefly: BLI, IgG on anti-human Fc sensor, 50 nM FOLR1.
For B1, the binding result is “binds”.

For the molecule B2, the binding result is given as “binds”.

Turning to B3, the binding result is on record as “binds”.

Turning to B4, the binding result is recorded as “binds”.

B5: the binding result was “binds”.

Consider B6, for which the binding result is recorded as “binds”.

B7: the binding result is listed as “binds”.

For the molecule B8, the binding result is reported as “binds”.

Consider B9, for which the binding result is recorded as “binds”.

Turning to B10, the binding result was “binds”.

B11: the binding result is recorded as “binds”.

As for B12, the binding result was “binds”.

For B13, the binding result is given as “binds”.

Consider B14, for which the binding result is “binds”.

For B15, the binding result is reported as “binds”.

For the molecule B16, the binding result is on record as “binds”.

For B17, the binding result is on record as “binds”.

For B18, the binding result was “binds”.

With B19, the binding result is “binds”.

For B20, the binding result is “binds”.

In the case of B21, the binding result is listed as “binds”.

The values above are taken from patent publication US20220298260A1 (MYTHIC THERAPEUTICS, published 2022).
